Assays:
[1] = target: EcZorB (ZorB of the Escherichia coli NCTC 9026 type I Zorya system, EcZorI) (Escherichia coli NCTC 9026); experiment: cryo-EM structure
[2] = target: EcZorA (ZorA of the Escherichia coli NCTC 9026 type I Zorya system, EcZorI) (Escherichia coli NCTC 9026); experiment: cryo-EM structure

| stoichiometry N [1] | stoichiometry N [2] | Substance |
| --- | --- | --- |
| 2 |  | EcZorB (ZorB of the Escherichia coli NCTC 9026 type I Zorya system, EcZorI) (natural protein) |
|  | 5 | EcZorA (ZorA of the Escherichia coli NCTC 9026 type I Zorya system, EcZorI) (natural protein) |
